Test results published in patent publication US20220267750A1 (Merck KGaA, published 2022).

Target: GP41-1 C-intein-thioredoxin fusion protein (CINT_TRX)
Experiment: cell-based or functional assay

B1: GP41-1 N-intein variant NINTΔA_TM fused with solubilization partner 138 (other)
chain: MTRSGYALDLKTQVQTPQGMKEISNIQVGDLVLSNTGYNEVLNVFPKSKKKSYKITLEDGKEIITSEEHLFPTQTGEMNISGGLKEGMMLYVKEGGMNKDEAGGNWKQFKGKVKEQWGKLTDDDMTIIEGKRDQLVGKIQERYGYQKDQAEKEVVDWETRNEYRW
catalytic rate (cleavage rate): ~3 fold of the parent construct NINTΔA_CC
